We go through 1 molecule from paper PMC9898751 (The Journal of Biological Chemistry, 2022).

No end group written: not given here.

The term Kd denotes a measure of binding affinity in units of concentration.

For this test, the target named is T1, PHF2(1–70), PHD domain of human PHF2 (residues 1–70) (human, UniProt O75151 1-70).
T1 sequence: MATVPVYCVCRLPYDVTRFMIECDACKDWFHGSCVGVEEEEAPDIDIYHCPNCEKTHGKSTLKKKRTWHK
Put plainly: ITC. Background: ITC needs no label: the signal is the heat of the interaction.

B1: H3(1-12)K4me3 peptide (12-mer of the N-terminal tail of histone H3, trimethylated at lysine 4) (peptide)
peptide: ARTK(me3)QTARKSTG
The molecule B1 yielded a Kd of 640 nM. In other words, the sub-micromolar range.
